Results published in article doi:10.1101/2024.12.17.628836.
Where “and” joins values, the source holds several entries; their conditions need not be identical. Identical values can stand only once.

Biological target: standard human 20S proteasome, immunopurified from HEK293-EBNA cells (human)
Assay: mass photometry

“recombinant human PA200 (proteasome activator 200) (from UniProt Q14997 1-1843) (natural protein)” was tested, and the percent of total 20S bound at a PA200:20S molar ratio of 8 was greater than 60% and the stoichiometry N (PA200 per 20S) was 1 and 2.
